Results from patent publication US10064929B2, “Peptides and combination of peptides for use in immunotherapy against breast cancer and other cancers” (immatics biotechnologies GmbH, priority 2015, dated 2018).
Square brackets hold non-standard residues; d marks the D form. Ends that are not written are not given here. pT = C[C@@H](OP(=O)(O)O)[C@H](N)C(=O)O

The sequences below were run against HLA-A*02:01 (Homo sapiens, UniProt P04439, D140Y/D185E/D98H/E176V/E277Q/G131W/G231S/I119V/I121R/I166T/I218V/L300P/L318F/N151K/N90K/P208A/P217A/Q86G/Q94H/R138H/R169H/T345S) (assay: MHC binding assay: UV-ligand exchange with β2m ELISA). Settings: binding to HLA-A*02:01.
Text: Candidate peptides for T cell based therapies according to the present invention were further tested for their MHC binding capacity (affinity). The individual peptide-MHC complexes were produced by UV-ligand exchange, where a UV-sensitive peptide is cleaved upon UV-irradiation, and exchanged with the peptide of interest as analyzed. Only peptide candidates that can effectively bind and stabilize the peptide-receptive MHC molecules prevent dissociation of the MHC complexes. To determine the yield of the exchange reaction, an ELISA was performed based on the detection of the light chain (β2m) of stabilized MHC complexes. The assay was performed as generally described in Rodenko et al. (Rodenko et al., 2006).
96 well MAXISorp plates (NUNC) were coated over night with 2 ug/ml streptavidin in PBS at room temperature, washed 4× and blocked for 1 h at 37° C. in 2% BSA containing blocking buffer. Refolded HLA-A*02:01/MLA-001 monomers served as standards, covering the range of 15-500 ng/ml. Peptide-MHC monomers of the UV-exchange reaction were diluted 100-fold in blocking buffer. Samples were incubated for 1 h at 37° C., washed four times, incubated with 2 ug/ml HRP conjugated anti-β2m for 1 h at 37° C., washed again and detected with TMB solution that is stopped with […]. Absorption was measured at 450 nm. Candidate peptides that show a high exchange yield (preferably higher than 50%, most preferred higher than 75%) are generally preferred for a generation and production of antibodies or fragments thereof, and/or T cell receptors or fragments thereof, as they show sufficient avidity to the MHC molecules and prevent dissociation of the MHC complexes.

Sequence | Peptide Exchange (MHC class I binding score, peptide exchange yield)
ALEEQLHQV (listed as Homo sapiens) [SEQ ID NO: 19] | “++” (≥20% = ++)
GLLPTSVSPRV (listed as Homo sapiens) [SEQ ID NO: 11] | “++” (≥20% = ++)
SLAWDVPAA (listed as Homo sapiens) [SEQ ID NO: 26] | “+++” (≥50 = +++)
ALTALQNYL (listed as Homo sapiens) [SEQ ID NO: 6] | “+++” (≥50 = +++)
KQLELELEV (listed as Homo sapiens) [SEQ ID NO: 14] | “+++” (≥50 = +++)
YIDGLESRV (listed as Homo sapiens) [SEQ ID NO: 22] | “+++” (≥50 = +++)
GLVATLQSL (listed as Homo sapiens) [SEQ ID NO: 32] | “+++” (≥50 = +++)
TIASSIEKA (listed as Homo sapiens) [SEQ ID NO: 17] | “++” (≥20% = ++)
KLYEGIPVL (listed as Homo sapiens) [SEQ ID NO: 13] | “++” (≥20% = ++)
ALAGSSPQV (listed as Homo sapiens) [SEQ ID NO: 2] | “+++” (≥50 = +++)
TLLGLAVNV (listed as Homo sapiens) [SEQ ID NO: 36] | “++++” (≥75% = ++++)
ALEAUQLYL (ALEA[pT]QLYL; listed as Homo sapiens) [SEQ ID NO: 29, U = phospho-threonine] | “+++” (≥50 = +++)
GLLGFQAEA (listed as Homo sapiens) [SEQ ID NO: 24] | “++++” (≥75% = ++++)
FIIPTVATA (listed as Homo sapiens) [SEQ ID NO: 7] | “++++” (≥75% = ++++)
KMPEHISTV (listed as Homo sapiens) [SEQ ID NO: 1] | “+++” (≥50 = +++)
SLADAVEKV (listed as Homo sapiens) [SEQ ID NO: 23] | “+++” (≥50 = +++)
SLFPSLVVV (listed as Homo sapiens) [SEQ ID NO: 15] | “+++” (≥50 = +++)
FMSKLVPAI (listed as Homo sapiens) [SEQ ID NO: 9] | “+++” (≥50 = +++)
KLLDMELEM (listed as Homo sapiens) [SEQ ID NO: 39] | “++++” (≥75% = ++++)
GLSYIYNTV (listed as Homo sapiens) [SEQ ID NO: 31] | “++” (≥20% = ++)

Sequence | Peptide Exchange (MHC class I binding score, peptide exchange yield)
GLHSLPPEV (listed as Homo sapiens) [SEQ ID NO: 10] | “+++” (≥50 = +++)
LLMUVAGLKL (LLM[pT]VAGLKL; listed as Homo sapiens) [SEQ ID NO: 38, U = phospho-threonine] | “++++” (≥75% = ++++)
SLVEGEAVHLA (listed as Homo sapiens) [SEQ ID NO: 4] | “++” (≥20% = ++)
FLSSEAANV (listed as Homo sapiens) [SEQ ID NO: 30] | “++” (≥20% = ++)
ILTELPPGV (listed as Homo sapiens) [SEQ ID NO: 33] | “++” (≥20% = ++)
YILLQSPQL (listed as Homo sapiens) [SEQ ID NO: 18] | “+++” (≥50 = +++)
SLNDQGYLL (listed as Homo sapiens) [SEQ ID NO: 41] | “+++” (≥50 = +++)
SLLSEIQAL (listed as Homo sapiens) [SEQ ID NO: 35] | “++++” (≥75% = ++++)
SMMGLLTNL (listed as Homo sapiens) [SEQ ID NO: 16] | “++++” (≥75% = ++++)
ILFDVVVFL (listed as Homo sapiens) [SEQ ID NO: 25] | “++” (≥20% = ++)
KAFPFYNTV (listed as Homo sapiens) [SEQ ID NO: 12] | “++” (≥20% = ++)
ALNPVIYTV (listed as Homo sapiens) [SEQ ID NO: 5] | “++” (≥20% = ++)
SLFSVPFFL (listed as Homo sapiens) [SEQ ID NO: 28] | “++++” (≥75% = ++++)
SLAEPRVSV (listed as Homo sapiens) [SEQ ID NO: 27] | “+++” (≥50 = +++)
FSFPVSVGV (listed as Homo sapiens) [SEQ ID NO: 20] | “+++” (≥50 = +++)
FLVEHVLTL (listed as Homo sapiens) [SEQ ID NO: 42] | “++++” (≥75% = ++++)
FLDEEVKLI (listed as Homo sapiens) [SEQ ID NO: 43] | “+++” (≥50 = +++)
GLVQSLTSI (listed as Homo sapiens) [SEQ ID NO: 8] | “++++” (≥75% = ++++)
SLLTEPALV (listed as Homo sapiens) [SEQ ID NO: 21] | “+++” (≥50 = +++)

What follows are sequences tested on CD8+ T cells (assay: In vitro T-cell priming with aAPCs loaded with peptide/MHC complexes and anti-CD28 antibody, pMHC multimer readout). Settings: HLA class I peptides; CD8+ T cells of healthy HLA-A*02 donors.
Type: cell-based, human
Text: In order to obtain information regarding the immunogenicity of the TUMAPs of the present invention, the inventors performed investigations using an in vitro T-cell priming assay based on repeated stimulations of CD8+ T cells with artificial antigen presenting cells (aAPCs) loaded with peptide/MHC complexes and anti-CD28 antibody.
In order to perform in vitro stimulations by artificial antigen presenting cells loaded with peptide-MHC complex (pMHC) and anti-CD28 antibody, the inventors first isolated CD8+ T cells from fresh HLA-A*02 leukapheresis products via positive selection using CD8 microbeads (Miltenyi Biotec, Bergisch-Gladbach, Germany) of healthy donors obtained from the University clinics Mannheim, Germany, after informed consent.
PBMCs and isolated CD8+ lymphocytes were incubated in T-cell medium (TCM) until use consisting of RPMI-Glutamax (Invitrogen, Karlsruhe, Germany) supplemented with 10% heat inactivated human AB serum (PAN-Biotech, Aidenbach, Germany), 100 U/ml Penicillin/100 μg/ml Streptomycin (Cambrex, Cologne, Germany), 1 mM sodium pyruvate (CC Pro, Oberdorla, Germany), 20 μg/ml Gentamycin (Cambrex). 2.5 ng/ml IL-7 (PromoCell, Heidelberg, Germany) and 10 U/ml IL-2 (Novartis Pharma, Nürnberg, Germany) were also added to the TCM at this step.
Generation of pMHC/anti-CD28 coated beads, T-cell stimulations and readout was performed in a highly defined in vitro system using four different pMHC molecules per stimulation condition and 8 different pMHC molecules per readout condition.
The purified co-stimulatory mouse IgG2a anti human CD28 Ab 9.3 (Jung et al., 1987) was chemically biotinylated using Sulfo-N-hydroxysuccinimidobiotin as recommended by the manufacturer (Perbio, Bonn, Germany). Beads used were 5.6 μm diameter streptavidin coated polystyrene particles (Bangs Laboratories, Illinois, USA).
800.000 beads/200 μl were coated in 96-well plates in the presence of 4×12.5 ng different biotin-pMHC, washed and 600 ng biotin anti-CD28 were added subsequently in a volume of 200 μl. Stimulations were initiated in 96-well plates by co-incubating 1×10^6 CD8+ T cells with 2×10^5 washed coated beads in 200 μl TCM supplemented with 5 ng/ml IL-12 (PromoCell) for 3 days at 37° C. Half of the medium was then exchanged by fresh TCM supplemented with 80 U/ml IL-2 and incubating was continued for 4 days at 37° C.
This stimulation cycle was performed for a total of three times. For the pMHC multimer readout using 8 different pMHC molecules per condition, a two-dimensional combinatorial coding approach was used as previously described (Andersen et al., 2012) with minor modifications encompassing coupling to 5 different fluorochromes. Finally, multimeric analyses were performed by staining the cells with Live/dead near IR dye (Invitrogen, Karlsruhe, Germany), CD8-FITC antibody clone SK1 (BD, Heidelberg, Germany) and fluorescent pMHC multimers. For analysis, a BD LSRII SORP cytometer equipped with appropriate lasers and filters was used. Peptide specific cells were calculated as percentage of total CD8+ cells. Evaluation of multimeric analysis was done using the FlowJo software (Tree Star, Oregon, USA). In vitro priming of specific multimer+ CD8+ lymphocytes was detected by comparing to negative control stimulations.

Sequence | wells (in vitro immunogenicity, positive wells)
ILFPDIIARA (listed as Homo sapiens) [SEQ ID NO: 66] | ++ (20%-49% = ++)
TLSSIKVEV (listed as Homo sapiens) [SEQ ID NO: 50] | + (<20% = +)
SLYKGLLSV (listed as Homo sapiens) [SEQ ID NO: 51] | ++ (20%-49% = ++)

Same assay, conditions: HLA-A*02 restricted peptides; positive wells among evaluable; healthy donors

Sequence | Wells positive [%] (in vitro immunogenicity)
YIDGLESRV (listed as Homo sapiens) [SEQ ID NO: 22] | “+” (<20% = +)
ALAGSSPQV (listed as Homo sapiens) [SEQ ID NO: 2] | “++” (20%-49% = ++)
GLLGFQAEA (listed as Homo sapiens) [SEQ ID NO: 24] | “++” (20%-49% = ++)
KMPEHISTV (listed as Homo sapiens) [SEQ ID NO: 1] | “+” (<20% = +)
SLADAVEKV (listed as Homo sapiens) [SEQ ID NO: 23] | “+++” (50%-69% = +++)
SLLTEPALV (listed as Homo sapiens) [SEQ ID NO: 21] | “++” (20%-49% = ++)
